This data set concerns Histone III (type ss from calf thymus).

For “His-tagged Pim-2 (purified recombinant human Pim-2, expressed in E. coli)”, the “Incorporation of 33P into Histone (in vitro kinase assay, 15, 30 and 60 min)” value was “purified recombinant Pim-2 is active in phosphorylating Histone”.

(Values after patent US20030125231.)
